Like-named read-outs stand apart in the source and are kept apart here.
T1: FcgRIIaH (human, UniProt P12318 34-217)
T1 construct: extracellular domain; H131 allotype; also called FcγRIIa H; FcgRIIa type H; not shown: C-terminal His tag
T1 sequence (looked up): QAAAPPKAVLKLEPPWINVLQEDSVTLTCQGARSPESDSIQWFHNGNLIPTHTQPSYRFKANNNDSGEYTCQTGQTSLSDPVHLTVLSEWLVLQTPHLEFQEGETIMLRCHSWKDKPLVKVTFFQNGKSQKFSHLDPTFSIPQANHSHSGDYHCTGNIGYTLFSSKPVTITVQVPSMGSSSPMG

T2: FcgRIIb (human, UniProt P31994 43-217)
T2 construct: extracellular domain; also called FcγRIIb; CD32B; not shown: C-terminal His tag
T2 sequence (looked up): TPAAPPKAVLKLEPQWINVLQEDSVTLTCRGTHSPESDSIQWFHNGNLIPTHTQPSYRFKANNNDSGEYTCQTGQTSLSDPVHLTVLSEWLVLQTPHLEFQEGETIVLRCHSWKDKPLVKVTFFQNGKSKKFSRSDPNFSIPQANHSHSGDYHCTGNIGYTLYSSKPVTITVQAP

T3: FcgRIIaR (human, UniProt P12318 34-217)
T3 construct: extracellular domain; R131 allotype; also called FcγRIIa R; FcgRIIa type R; not shown: C-terminal His tag
T3 sequence (looked up): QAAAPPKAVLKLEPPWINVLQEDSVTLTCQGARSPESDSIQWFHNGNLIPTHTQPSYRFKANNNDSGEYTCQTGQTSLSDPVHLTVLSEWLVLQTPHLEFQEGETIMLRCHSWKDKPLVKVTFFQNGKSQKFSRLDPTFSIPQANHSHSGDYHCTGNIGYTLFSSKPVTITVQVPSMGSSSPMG


Legend:
FcgRIIaH [1] = target: T1, FcgRIIaH; experiment: SPR (Biacore), antibody captured on chip, FcgR as analyte
Protocol: (§1) The variants described above were assessed for their binding to FcgR according to the method described in Reference Example 8.
(§2) Analysis of interaction between obj ective antibody and the FcγR was carried out using Biacore T100 (GE Healthcare), Biacore T200, Biacore A100, and Biacore 4000. HBS-EP+ (GE Healthcare) was used as the running buffer, and the measurement temperature was set to 25° C. Chips produced by immobilizing the antigen peptide by the amine coupling method to a Series S sensor Chip CM5 (GE Healthcare), chips produced by allowing preliminarily biotinylated antigen peptides to interact with and immobilize onto a Series S Sensor Chip SA (certified) (GE Healthcare), chips produced by immobilizing Protein L (ACTIGEN, BioVision) to Series S Sencor Chip CM5 (GE Healthcare), or chips produced by immobilizing Protein A/G (Thermo Scientific) to Series S Sencor Chip CM5 (GE Healthcare) were used. Antibodies of interest were captured onto these chips, and allowed to interact to each FcγR diluted with running buffer. To regenerate and repeatedly use the chip, the antibodies captured onto the chip were washed off by reacting 10 mM glycine-HCl, pH 1.5.

FcgRIIb [2] = target: T2, FcgRIIb; experiment: as above
Protocol: as §1, §2

FcgRIa [3] = target: T4, FcgRIa (human, UniProt P12314 16-292); experiment: as above
T4 construct: extracellular domain; also called FcγRIa; FcγRI; not shown: C-terminal His tag
T4 sequence (P12314 16-292): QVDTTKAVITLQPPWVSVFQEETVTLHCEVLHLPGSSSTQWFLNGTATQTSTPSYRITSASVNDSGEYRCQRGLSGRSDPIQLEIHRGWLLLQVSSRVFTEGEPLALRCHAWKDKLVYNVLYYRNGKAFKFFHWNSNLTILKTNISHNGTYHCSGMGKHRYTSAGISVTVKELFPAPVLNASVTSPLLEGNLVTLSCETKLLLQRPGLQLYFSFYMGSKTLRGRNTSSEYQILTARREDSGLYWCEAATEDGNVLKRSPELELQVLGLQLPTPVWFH
Protocol: as §1, §2

FcgRIIaR [4] = target: T3, FcgRIIaR; experiment: as above
Protocol: as §1, §2

FcgRIIIaF [5] = target: T5, FcgRIIIaF (human, UniProt P08637 17-208); experiment: as above
T5 construct: extracellular domain; F158 allotype; also called FcγRIIIa F; not shown: C-terminal His tag
T5 sequence (P08637 17-208): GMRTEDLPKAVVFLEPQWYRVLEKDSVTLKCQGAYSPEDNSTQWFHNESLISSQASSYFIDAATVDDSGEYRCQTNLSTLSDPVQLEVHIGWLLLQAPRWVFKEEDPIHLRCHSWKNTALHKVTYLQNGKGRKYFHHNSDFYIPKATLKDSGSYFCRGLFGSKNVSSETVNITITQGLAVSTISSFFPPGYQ
Protocol: as §1, §2

FcgRIIIaV [6] = target: T6, FcgRIIIaV (human, UniProt P08637 17-208); experiment: as above
T6 construct: extracellular domain; V158 allotype; also called FcγRIIIa V; not shown: C-terminal His tag
T6 sequence (P08637 17-208 F176V limits assumed): as the sequence (P08637 17-208) above, with F160V counted along it
Protocol: as §1, §2

FcgRIIaH [7] = target: T1, FcgRIIaH; experiment: as above; remark: listed apart in the source
Protocol: (§3) The variants described above were assessed for their binding to FcγR according to the method described in Reference Example 8.
as §2

FcgRIIb [8] = target: T2, FcgRIIb; experiment: as above; remark: listed apart in the source
Protocol: as §3, §2

FcgRIa [9] = target: T4, FcgRIa; experiment: as above; remark: listed apart in the source
Protocol: as §3, §2

FcgRIIaR [10] = target: T3, FcgRIIaR; experiment: as above; remark: listed apart in the source
Protocol: as §3, §2

FcgRIIIaF [11] = target: T5, FcgRIIIaF; experiment: as above; remark: listed apart in the source
Protocol: as §3, §2

FcgRIIIaV [12] = target: T6, FcgRIIIaV; experiment: as above; remark: listed apart in the source
Protocol: as §3, §2

FcgRIIaH [13] = target: T1, FcgRIIaH; experiment: SPR (Biacore); KD of H240-Kn120/H240-Hl068/L73-k0 divided by KD of the sample
Protocol: as §3, §2

FcgRIIb [14] = target: T2, FcgRIIb; experiment: as above
Protocol: as §3, §2

FcgRIIaR [15] = target: T3, FcgRIIaR; experiment: as above
Protocol: as §3, §2

FcgRIIIaF [16] = target: T5, FcgRIIIaF; experiment: as above
Protocol: as §3, §2

FcgRIIIaV [17] = target: T6, FcgRIIIaV; experiment: as above
Protocol: as §3, §2

FcgRIIaH [18] = target: T1, FcgRIIaH; experiment: as above; remark: listed apart in the source
Protocol: as §1, §2

FcgRIIb [19] = target: T2, FcgRIIb; experiment: as above; remark: listed apart in the source
Protocol: as §1, §2

FcgRIIaR [20] = target: T3, FcgRIIaR; experiment: as above; remark: listed apart in the source
Protocol: as §1, §2

FcgRIIIaF [21] = target: T5, FcgRIIIaF; experiment: as above; remark: listed apart in the source
Protocol: as §1, §2

FcgRIIIaV [22] = target: T6, FcgRIIIaV; experiment: as above; remark: listed apart in the source
Protocol: as §1, §2

Row | Binder | Kd (FcgRIIaH [1]) [µM] | Kd (FcgRIIb [2]) [µM] | Kd (FcgRIa [3]) [µM] | Kd (FcgRIIaR [4]) [µM] | Kd (FcgRIIIaF [5]) [µM] | Kd (FcgRIIIaV [6]) [µM] | Kd (FcgRIIaH [7]) [µM] | Kd (FcgRIIb [8]) [µM] | Kd (FcgRIa [9]) [µM] | Kd (FcgRIIaR [10]) [µM] | Kd (FcgRIIIaF [11]) [µM] | Kd (FcgRIIIaV [12]) [µM] | Relative KD (FcgRIIaH [13]) | Relative KD (FcgRIIb [14]) | Relative KD (FcgRIIaR [15]) | Relative KD (FcgRIIIaF [16]) | Relative KD (FcgRIIIaV [17]) | Relative KD (FcgRIIaH [18]) | Relative KD (FcgRIIb [19]) | Relative KD (FcgRIIaR [20]) | further results
1 | H240-Kn120/H240-Hl068/L73-k0 (antibody, human IgG1, kappa, Heterodimerized anti-epiregulin IgG1-type antibody (knobs-into-holes); also called H240-Kn120/H240-HI068/L73-k0) heavy 1: QDQLVQSGAEVKKPGASVKVSCKASGFNIKDTYIQWVRQAPGQGLEWMGRIDPLRKQTKYREKFEGRVTITADTSTNTAYMELSSLRSEDTAVYYCVRSGREFDYWGQGTLVTVSSASTKGPSVFPLAPSSKSTSGGTAALGCLVKDYFPEPVTVSWNSGALTSGVHTFPAVLQSSGLYSLSSVVTVPSSSLGTQTYICNVNHKPSNTKVDKKVEPKSCDKTHTCPPCPAPEYYWGPMVFLFPPKPKDTLMISRTPEVTCVVVDVSDEDPEVKFNWYVDGVEVHNAKTKPREEQYNATYRVVSVLTVLHQDWLNGKEYKCKVSNKDLPAPIEKTISKAKGQPREPQVCTLPPSRDELTKNQVSLWCLVKGFYPSDIAVEWESNGQPENNYKTTPPVLDSDGSFFLYSKLTVDKSRWQQGNVFSCSVMHEALHNHYTQKSLSLSP heavy 2: QDQLVQSGAEVKKPGASVKVSCKASGFNIKDTYIQWVRQAPGQGLEWMGRIDPLRKQTKYREKFEGRVTITADTSTNTAYMELSSLRSEDTAVYYCVRSGREFDYWGQGTLVTVSSASTKGPSVFPLAPSSKSTSGGTAALGCLVKDYFPEPVTVSWNSGALTSGVHTFPAVLQSSGLYSLSSVVTVPSSSLGTQTYICNVNHKPSNTKVDKKVEPKSCDKTHTCPPCPAPELLGGPSVFLFPPKPKDTLMISRTPEVTCVVVDVSHEEPEVKFNWYVDGVEVHNAKTKPREEQYNSTYRVVSVLTVLHQDWLNGKEYKCKVSNDALPKPIEETISKAKGQPREPQVYTLPPSRCELTKNQVSLSCAVKGFYPSDIAVEWESNGQPENNYKTTPPVLDSDGSFFLVSKLTVDKSRWQQGNVFSCSVMHEALHNHYTQKSLSLSP light: DIQMTQSPSSLSASVGDRVTITCRASQDIHKYIAWYQQKPGQAPRLLIQYTSTLQPGVPSRFSGSGSGTDYTFTISSLQPEDIATYYCLQYEQLRTFGGGTKVEIKRTVAAPSVFIFPPSDEQLKSGTASVVCLLNNFYPREAKVQWKVDNALQSGNSQESVTEQDSKDSTYSLSSTLTLSKADYEKHKVYACEVTHQGLSSPVTKSFNRGEC | 0.041 | 0.15 | 0.00016 | 0.02 | 0.0022 | 0.00036 | 0.041 | 0.15 | 0.00016 | 0.02 | 0.0022 | 0.00036 | 1 | 1 | 1 | 1 | 1 | 1 | 1 | 1 | Relative KD (FcgRIIIaF [21]): 1; Relative KD (FcgRIIIaV [22]): 1
2 | H240-Kn120/H240-Hl089/L73-k0 (antibody, human IgG1, kappa, Heterodimerized anti-epiregulin antibody; G236T in the Hl068 chain; also called H240-Kn120/H240-HI089/L73-k0) heavy 1: QDQLVQSGAEVKKPGASVKVSCKASGFNIKDTYIQWVRQAPGQGLEWMGRIDPLRKQTKYREKFEGRVTITADTSTNTAYMELSSLRSEDTAVYYCVRSGREFDYWGQGTLVTVSSASTKGPSVFPLAPSSKSTSGGTAALGCLVKDYFPEPVTVSWNSGALTSGVHTFPAVLQSSGLYSLSSVVTVPSSSLGTQTYICNVNHKPSNTKVDKKVEPKSCDKTHTCPPCPAPEYYWGPMVFLFPPKPKDTLMISRTPEVTCVVVDVSDEDPEVKFNWYVDGVEVHNAKTKPREEQYNATYRVVSVLTVLHQDWLNGKEYKCKVSNKDLPAPIEKTISKAKGQPREPQVCTLPPSRDELTKNQVSLWCLVKGFYPSDIAVEWESNGQPENNYKTTPPVLDSDGSFFLYSKLTVDKSRWQQGNVFSCSVMHEALHNHYTQKSLSLSP heavy 2: QDQLVQSGAEVKKPGASVKVSCKASGFNIKDTYIQWVRQAPGQGLEWMGRIDPLRKQTKYREKFEGRVTITADTSTNTAYMELSSLRSEDTAVYYCVRSGREFDYWGQGTLVTVSSASTKGPSVFPLAPSSKSTSGGTAALGCLVKDYFPEPVTVSWNSGALTSGVHTFPAVLQSSGLYSLSSVVTVPSSSLGTQTYICNVNHKPSNTKVDKKVEPKSCDKTHTCPPCPAPELLTGPSVFLFPPKPKDTLMISRTPEVTCVVVDVSHEEPEVKFNWYVDGVEVHNAKTKPREEQYNSTYRVVSVLTVLHQDWLNGKEYKCKVSNDALPKPIEETISKAKGQPREPQVYTLPPSRCELTKNQVSLSCAVKGFYPSDIAVEWESNGQPENNYKTTPPVLDSDGSFFLVSKLTVDKSRWQQGNVFSCSVMHEALHNHYTQKSLSLSP light: DIQMTQSPSSLSASVGDRVTITCRASQDIHKYIAWYQQKPGQAPRLLIQYTSTLQPGVPSRFSGSGSGTDYTFTISSLQPEDIATYYCLQYEQLRTFGGGTKVEIKRTVAAPSVFIFPPSDEQLKSGTASVVCLLNNFYPREAKVQWKVDNALQSGNSQESVTEQDSKDSTYSLSSTLTLSKADYEKHKVYACEVTHQGLSSPVTKSFNRGEC | 0.041 | 0.19 | 0.00018 | 0.014 | 0.012 | 0.0054 | 0.041 | 0.19 | 0.00018 | 0.014 | 0.012 | 0.0054 | 1 | 0.8 | 1.4 | 0.2 | 0.1 | 1 | 0.8 | 1.4 | Relative KD (FcgRIIIaF [21]): 0.2; Relative KD (FcgRIIIaV [22]): 0.1

— patent US20180155451A1 (published 2018)
